Source: paper PMC3956856, “Interaction of Kinase-Interaction-Motif Protein Tyrosine Phosphatases with the Mitogen-Activated Protein Kinase ERK2” (PLoS ONE, 2014)
Entries after “also recorded” stand apart in the source; their conditions may differ.

T1: PTPSL KIMKIS (PTPSL residues 332-373) (human, UniProt Q15256 332-373)
T1 construct: PTPSL/PTPBR7 (PTPRR), residues 332-373 (KIM and KIS); human is stated for the PTPSL 332-655 construct; Recombinant, not synthetic; source: final SEC
T1 chain (looked up): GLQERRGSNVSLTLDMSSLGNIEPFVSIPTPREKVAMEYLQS

T2: STEPKIM peptide (STEP residues 213-229) (mouse, UniProt P54830 213-229)
T2 construct: STEP (PTPN5, striatal enriched protein tyrosine phosphatase), residues 213-229 (KIM); mouse is stated for the STEP 213-539 construct; source: synthetic peptide (Biosynthesis, Inc.), HPLC purified, >98% purity
T2 peptide (looked up): MGLQERRGSNVSLTLDM

T3: STEP KIMKIS peptide (STEP residues 213-256) (mouse, UniProt P54830 213-256)
T3 construct: STEP (PTPN5), residues 213-256 (KIM and KIS); mouse is stated for the STEP 213-539 construct; source: synthetic peptide (Biosynthesis, Inc.), HPLC purified, >98% purity
T3 peptide (looked up): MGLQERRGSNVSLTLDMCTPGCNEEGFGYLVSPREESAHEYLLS

B1: extracellular signal-regulated kinase 2 (ERK2), unphosphorylated (enzyme, UniProt P63086 1-358, looked up)
chain: MAAAAAAGPEMVRGQVFDVGPRYTNLSYIGEGAYGMVCSAYDNLNKVRVAIKKISPFEHQTYCQRTLREIKILLRFRHENIIGINDIIRAPTIEQMKDVYIVQDLMETDLYKLLKTQHLSNDHICYFLYQILRGLKYIHSANVLHRDLKPSNLLLNTTCDLKICDFGLARVADPDHDHTGFLTEYVATRWYRAPEIMLNSKGYTKSIDIWSVGCILAEMLSNRPIFPGKHYLDQLNHILGILGSPSQEDLNCIINLKARNYLLSLPHKNKVPWNRLFPNADSKALDLLDKMLTFNPHKRIEVEQALAHPYLEQYYDPSDEPIAEAPFKFDMELDDLPKEKLKELIFEETARFQPGYRS
notes: ERK2 (extracellular signal-regulated kinase 2), unphosphorylated; also called MAPK; source: final SEC (Superdex 75 26/60)

Assays:
[1] = biological target: T1, PTPSL KIMKIS (PTPSL residues 332-373); assay: ITC; ERK2 titrated into STEPKIM, PTPSL KIMKIS or STEP KIMKIS in the cell; 25 °C; 10 mM Tris pH 7.5, 150 mM NaCl, 0.1 mM EDTA, 0.5 mM TCEP; one-site model; triplicate; conditions: both partners purified
[2] = biological target: T2, STEPKIM peptide (STEP residues 213-229); assay: as above; conditions: both partners purified
[3] = biological target: T3, STEP KIMKIS peptide (STEP residues …); assay: as above; conditions: both partners purified
ERK2 [4] = biological target: T4, ERK2 (Rattus norvegicus, UniProt P63086); assay: SAXS of resting-state complexes with ERK2; conditions: ERK2:PTPSL complex; 50 mM HEPES pH 6.8, 150 mM NaCl, 5 mM dithiothreitol
T4 construct: gene Mapk1; made in house

ERK2 [5] = biological target: T4, ERK2; assay: Isothermal titration calorimetry with ERK2; format: binding
Protocol: The PTPSLKIM peptide (residues 331–348), STEPKIM (residues 213–229) and STEPKIMKIS (residues 213–256) were synthesized, HPLC purified and verified by mass spectrometry (MS) (>98% purity; Biosynthesis, Inc.). Expression and purification of ERK2 and PTPSLKIMKIS (residues 332–373) was carried out as previously described, [15]. PTPSL (residues 332–655, human), STEP (residues 213–539, mouse) and PSChimera (PTPSL residues 332–373 with STEP residues 257–539; gene synthesized by DNA 2.0) were expressed and purified using the protocol previously described in detail for STEPCAT (residues 244–539). The DUSP16 MAPK binding domain (residues 5–138, human) was expressed and purified as previously described. All purified proteins were stored at −80 °C until use at which point they were thawed and exchanged into the appropriate buffer using size exclusion chromatography (SEC; Superdex 75 26/60; GE Healthcare). The final protein buffer was dependent on the experiment performed. For ITC experiments, the final SEC purification was performed in ITC buffer (10 mM Tris pH 7.5, 150 mM NaCl, 0.1 mM EDTA, 0.5 mM TCEP); for SAXS experiments, the final SEC purification was performed in SAXS buffer (50 mM HEPES pH 6.8, 150 mM NaCl, 5 mM dithiothreitol). PTPSLKIM, STEPKIM and STEPKIMKIS peptides were solubilized in ITC buffer prior to ITC measurements.
ITC experiments were performed at 25 °C using a VP-ITC microcalorimeter (Microcal Inc.). Titrant (10 μL per injection) was injected into the sample cell over a period of 20 seconds with a 250 second interval between titrations to allow for complete equilibration and baseline recovery. 28 injections were delivered during each experiment and the solution in the sample cell was stirred at 307 rpm to ensure rapid mixing. To determine the thermodynamic parameters (ΔH, ΔS, ΔG) and binding constants (K) of the ERK2:PTPSLKIM, ERK2:PTPSL, ERK2:STEP and ERK2:PSChimera interactions, PTPSLKIM, PTPSL, STEP and PSChimera were titrated into ERK2. To determine the same parameters for the ERK2:STEPKIM, ERK2:PTPSLKIMKIS and ERK2:STEPKIMKIS interaction, ERK2 was titrated into the peptides. Titrants were chosen based on the amount of purified protein/peptide available for the experiment. For all titrations the concentrations were slightly varied to ensure independence of the Kd from the protein/peptide concentrations. Data were analyzed with a one-site binding model assuming a binding stoichiometry of 1∶1 using Origin 7.0 software. A nonlinear least-squares algorithm and the titrant and sample cell concentrations were used to fit the heat flow per injection to an equilibrium binding equation, providing values of the stoichiometry (n), change in enthalpy (ΔH) and binding constant (K). All data were repeated in triplicate.

p38α = conditions: values previously published, ref [14], [15], [17], [18]; cited from earlier work
Text: We used ITC measurements to determine the binding affinity of STEP and PTPSL for unphosphorylated ERK2 ( Table 1; Figure S1). […] This complex has a ∼3-times lower Kd (tighter binding) than the next tightest complex, ERK2:PTPSL, and a nearly 70-fold greater affinity than the weakest complex, p38α:HePTP [15]. Like STEP, PTPSL binds ERK2 more tightly (∼3.5-fold) than p38α. We also tested peptides that include the kinase specificity s ... || We also generated a chimeric protein in which we fused the PTPSLKIMKIS to STEPCAT (PSchimera; Figure 1A ). […] Thus, they only adopt a single conformation when they bind their respective MAPKs. This is different from the MAPK-binding domains (MKBD) of MAPK phosphatases (MKP; dual specificity phosphatases; DUSPs), [26]. In MKPs, the KIM sequence is part of a stable, folded domain and thus adopts a single, ordered conformation in both the unbound and MAPK-bound states, [28]. […] Our ... || (+ 1 further places)

ERK2 [6] = biological target: T4, ERK2; conditions: structural model from cross-linking, MS and molecular modeling; ref [24]; cited from earlier work
Text: In this model, PTPSLCAT binds ERK2 in an orientation in which the catalytic site is positioned near the ERK2 phosphorylation loop. This is different from the p38 ... || Figure 3 Regulatory protein-MAPK interaction strengths. The binding strengths of each KIM-PTP (KIM peptides and KIM-containing MKBDs (in orange font), light blue; KIMKIS peptides, light purple; proteins, light pink) to p38α and ERK2 represented from weakest to tightest (largest Kd to smallest Kd) binding affinity; ‘^†’ indicates values previously published, [15], [17], [18]. KIM-PTP:MAPK complexes determined to be extended using SAXS written in normal text; KIM-PTP:MAPK complexes determined to be compact written in italics; *, compact nature of the ERK2-PTPSL complex determined by ...

[7] = biological target: B1; assay: ITC; PTPSLKIM, PTPSL, STEP or PSChimera titrated into ERK2 in the cell; 25 °C; 10 mM Tris pH 7.5, 150 mM NaCl, 0.1 mM EDTA, 0.5 mM TCEP; one-site model; triplicate; conditions: both partners purified

| Molecule | dH [1] [kcal/mol] | dH [2] [kcal/mol] | dH [3] [kcal/mol] | aggregation of the ERK2:PTPSL complex in SAXS samples (ERK2 [4]) | relative binding to ERK2 (in words) (ERK2 [5]; ERK2, ITC) | tighter binding to ERK2 than the PTPSLKIM peptide (ERK2 [5]; ERK2, ITC, versus PTPSLKIM) [times] | tighter binding to ERK2 than to p38α (fold difference in affinity) (ERK2 [5]; ITC Kd, ERK2 versus p38α) [fold] | affinity for ERK2 compared with p38α (in words) (ERK2 [5]; ITC, ERK2 versus p38α) | TΔS (ERK2 [5]; unphosphorylated ERK2, ITC, 25 °C, 10 mM Tris pH 7.5, 150 mM NaCl, 0.1 mM EDTA, 0.5 mM TCEP, average and standard deviation, triplicate) [kcal/mol] | Kd (p38α) [nM] | shape of the ERK2:PTPSL resting-state complex (in words) (ERK2 [6]) | Kd [7] [nM] | dH [7] [kcal/mol] |
| --- | --- | --- | --- | --- | --- | --- | --- | --- | --- | --- | --- | --- | --- |
| B1 | -21.6 | -27.9 | -29.2 | – | – | – | – | – | – | – | – | – | – |
| PTPSL (residues 332-655, human) (domain or fragment, UniProt Q15256 332-655, looked up, PTPSL/PTPBR7 (PTPRR, PTP STEP-like), human, residues 332-655 (KIM, KIS and catalytic domain); The results loosely call this construct 'full-length PTPSL'; the construct is residues 332-655; also called PTPBR7; PTPRR; source: final SEC) GLQERRGSNVSLTLDMSSLGNIEPFVSIPTPREKVAMEYLQSASRILTRSQLRDVVASSHLLQSEFMEIPMNFVDPKEIDIPRHGTKNRYKTILPNPLSRVCLRPKNVTDSLSTYINANYIRGYSGKEKAFIATQGPMINTVDDFWQMVWQEDSPVIVMITKLKEKNEKCVLYWPEKRGIYGKVEVLVISVNECDNYTIRNLVLKQGSHTQHVKHYWYTSWPDHKTPDSAQPLLQLMLDVEEDRLASQGRGPVVVHCSAGIGRTGCFIATSIGCQQLKEEGVVDALSIVCQLRMDRGGMVQTSEQYEFVHHALCLYESRLSAET | – | – | – | persistently exhibited the typical hallmarks of aggregation | more strongly than does HePTP | ~4 | ~3.5 | higher binding affinity for ERK2 than for p38α; also recorded: bind more strongly to ERK2 | -12.8 ± 2.1 | 382 ± 65 | compact, with ERK2 and PTPSL associating in a side-by-side manner | 108 | -22.3 |
